# Read-outs that look alike come from different tables or passages of the source. No end group written: not given here.
# T1: bCPA1 (Bos taurus, UniProt P00730)
# T1 sequence (P00730 111-419): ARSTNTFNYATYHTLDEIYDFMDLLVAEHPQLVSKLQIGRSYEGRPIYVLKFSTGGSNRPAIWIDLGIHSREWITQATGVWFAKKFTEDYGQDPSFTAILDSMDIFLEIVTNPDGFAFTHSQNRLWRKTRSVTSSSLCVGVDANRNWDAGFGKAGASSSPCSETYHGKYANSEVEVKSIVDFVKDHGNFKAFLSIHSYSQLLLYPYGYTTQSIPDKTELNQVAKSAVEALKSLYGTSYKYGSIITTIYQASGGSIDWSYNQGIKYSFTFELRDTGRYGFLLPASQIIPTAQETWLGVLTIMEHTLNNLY
# T2: hCPA1 (Homo sapiens, UniProt P15085)
# T2 sequence (P15085 111-419): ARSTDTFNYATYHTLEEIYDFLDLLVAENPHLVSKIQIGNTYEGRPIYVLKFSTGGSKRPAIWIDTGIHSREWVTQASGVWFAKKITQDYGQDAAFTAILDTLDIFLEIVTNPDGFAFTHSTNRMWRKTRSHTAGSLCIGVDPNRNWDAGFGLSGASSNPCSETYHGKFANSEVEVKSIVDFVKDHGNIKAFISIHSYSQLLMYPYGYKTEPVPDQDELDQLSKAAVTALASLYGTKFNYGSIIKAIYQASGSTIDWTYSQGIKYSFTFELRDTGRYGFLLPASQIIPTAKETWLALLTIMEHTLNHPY
# T3: hCPA2 (Homo sapiens, UniProt P48052)
# T3 sequence (P48052 115-419): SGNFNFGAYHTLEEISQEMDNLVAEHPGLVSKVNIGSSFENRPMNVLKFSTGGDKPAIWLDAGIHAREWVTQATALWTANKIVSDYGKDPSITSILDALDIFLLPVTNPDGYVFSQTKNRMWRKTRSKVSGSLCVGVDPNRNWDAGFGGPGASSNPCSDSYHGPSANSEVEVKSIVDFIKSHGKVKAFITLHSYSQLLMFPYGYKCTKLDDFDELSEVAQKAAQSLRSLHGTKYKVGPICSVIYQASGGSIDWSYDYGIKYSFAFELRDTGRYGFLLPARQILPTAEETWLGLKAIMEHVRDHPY
# T4: hCPA4 (Homo sapiens, UniProt Q9UI42)
# T4 sequence (Q9UI42 114-421): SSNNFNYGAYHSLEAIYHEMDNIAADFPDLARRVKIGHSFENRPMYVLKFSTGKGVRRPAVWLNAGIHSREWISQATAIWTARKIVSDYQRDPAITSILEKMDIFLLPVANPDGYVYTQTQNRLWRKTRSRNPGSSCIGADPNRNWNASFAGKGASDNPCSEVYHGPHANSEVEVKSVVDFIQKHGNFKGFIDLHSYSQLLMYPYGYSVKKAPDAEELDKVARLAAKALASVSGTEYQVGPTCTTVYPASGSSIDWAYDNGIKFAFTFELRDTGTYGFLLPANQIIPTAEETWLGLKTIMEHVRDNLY
# T5: pCPB (Sus scrofa, UniProt P09955)
# T5 sequence (P09955 111-416): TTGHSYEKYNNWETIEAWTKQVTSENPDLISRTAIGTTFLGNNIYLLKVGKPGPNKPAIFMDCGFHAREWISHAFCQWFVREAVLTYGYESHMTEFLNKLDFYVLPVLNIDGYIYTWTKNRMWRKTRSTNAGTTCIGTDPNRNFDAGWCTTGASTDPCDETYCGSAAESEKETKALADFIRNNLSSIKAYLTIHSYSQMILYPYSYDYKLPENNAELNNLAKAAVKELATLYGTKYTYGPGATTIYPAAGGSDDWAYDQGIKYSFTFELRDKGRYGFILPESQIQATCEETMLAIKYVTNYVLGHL
# T6: hCPB (Homo sapiens, UniProt P15086)
# T6 sequence (P15086 111-417): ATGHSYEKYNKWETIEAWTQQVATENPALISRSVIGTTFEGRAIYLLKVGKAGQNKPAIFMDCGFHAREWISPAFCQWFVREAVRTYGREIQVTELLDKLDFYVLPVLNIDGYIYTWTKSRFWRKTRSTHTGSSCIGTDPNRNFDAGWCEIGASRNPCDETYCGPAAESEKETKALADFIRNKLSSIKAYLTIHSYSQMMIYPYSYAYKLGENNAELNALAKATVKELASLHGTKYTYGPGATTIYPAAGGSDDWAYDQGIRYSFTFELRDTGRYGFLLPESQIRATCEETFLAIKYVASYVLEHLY
# T7: hTAFI (Homo sapiens, UniProt Q96IY4)
# T7 sequence (Q96IY4 115-423): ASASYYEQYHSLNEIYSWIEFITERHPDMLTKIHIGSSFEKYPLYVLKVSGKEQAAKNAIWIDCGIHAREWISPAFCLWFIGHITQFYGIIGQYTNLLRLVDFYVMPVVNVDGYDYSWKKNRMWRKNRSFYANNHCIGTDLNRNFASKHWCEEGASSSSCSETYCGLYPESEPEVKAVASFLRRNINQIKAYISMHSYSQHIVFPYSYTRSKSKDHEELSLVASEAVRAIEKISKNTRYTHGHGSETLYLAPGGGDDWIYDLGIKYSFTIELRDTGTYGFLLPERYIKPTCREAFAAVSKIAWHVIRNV
# B1: rLCI: recombinant carboxypeptidase inhibitor from the medical leech Hirudo medicinalis (protein, UniProt P81511 16-81, looked up)
# Metallocarboxypeptidase …: SHTPDESFLCYQPDQVCCFICRGAAPLPSEGECNPHPTAPWCREGAVEWVPYSTGQCRTTCIPYVE
# B2: rACI: recombinant carboxypeptidase inhibitor from the intestinal parasite Ascaris suum (protein)
# chain: VRKCLSDTDCTNGEKCVQKNKICSTIVEIQRCEKEHFTIPCKSNNDCQVWAHEKICNKGCCWDLL
# modifications: intrachain disulphides
# B3: rhuman latexin: recombinant human latexin, larger (19–22 kDa) endogenous protein inhibitor of carboxypeptidases (protein, UniProt Q9BS40 1-222, looked up)
# Latexin: MEIPPTNYPASRAALVAQNYINYQQGTPHRVFEVQKVKQASMEDIPGRGHKYHLKFAVEEIIQKQVKVNCTAEVLYPSTGQETAPEVNFTFEGETGKNPDEEDNTFYQRLKSMKEPLEAQNIPDNFGNVSPEMTLVLHLAWVACGYIIWQNSTEDTWYKMVKIQTVKQVQRNDDFIELDYTILLHNIASQEIIPWQMQVLWHPQYGTKVKHNSRLPKEVQLE
# Experiments:
# HepG2 cells = experiment: Cellular uptake by confocal laser scanning microscopy; assay type: cell-based, human; details: HepG2, 20 µg/ml, 4 h at 37 °C, CLSM, LysoTracker and Hoechst staining
# Method: Recombinant NvCI was fluorescently labelled with an Alexa Fluor 488 Protein Labeling Kit (Molecular Probes, Eugene, OR, USA). HepG2 cells were seeded in a 35 mm glass-bottom culture dish (MatTek Corporation, Ashland, MA, USA) at a density of 4 × 10^5 cells/well and incubated for 24 h. The cells were incubated with 20 µg/ml Alexa 488-NvCI for 4 h at 37 °C. Prior to imaging, lysosomes and nuclei were stained with Lysotracker Red and Hoechst (Invitrogen, Carlsbard, CA, USA), respectively, for 90 or 10 min.
# bCPA1 [1] = biological target: T1, bCPA1; experiment: Ki determination, tight-binding inhibition of metallocarboxypeptidase; assay type: biochemical, bovine; details: natural isoforms; apparent Ki, without correction by competing assays; read-out: derived Ki towards bCPA (apparent Ki values)
# Method: Inhibitory activities against CPA- and CPB-type forms (bovine and human variants of CPA1, CPA2, CPA4, CPB1, and TAFI) were assayed for all extracts, subject to the experimental conditions that enzyme (E), substrate (S) and inhibitor (I) concentrations as well as the [I]/[E] ratio and preincubation time followed the requirements for tight-binding inhibitor assays. Similar approaches were followed to measure the activities of proteases of different catalytic types, like pepsin, papain, trypsin and subtilisin [45, 46, 47, 48]. All assays were performed in triplicate at 25 °C in a multiplexed manner. For 96-well assays an iEMS spectrophotometer reader/dispenser FM (Labsystems, Finland) was used with a final reaction volume of 250 μL. For cuvette assays, a Cary 400 Bio spectrophotometer (Varian Inc., Palo Alto, CA, USA) spectrophotometer was used with a final reaction volume of 1 ml. The reactions were followed at 5 s intervals for 5 min and recorded as initial velocities. In the protease inhibition assays, mixtures of activity buffer, biological sample and enzyme were preincubated at 25 °C for 10min, before substrate addition. The assay conditions were as follows: for CPA-like enzymes, 7.0nM CPA, 0.1mM AAFP substrate in 20mM Tris-HCl pH 7.5, 500mMNaCl, 1% v/v dimethyl sulfoxide (DMSO), 0.05% w/v BRIJ-35 was used. For CPB-like enzymes, CPB 3.0nM CPB, 0.1mM AAFA substrate and activity buffer of 20 mM Tris-HCl pH [50].
# The Ki values of natural and recombinant NvCI against bCPA1, hCPA1, hCPA2, rat CPA3, hCPA4, hCPB1, bTAFI, hTAFI, hCPD and hCPZ were determined by measuring the enzymatic residual activity (Vi/V0 = a) at different inhibitor concentrations and using a fixed enzyme and substrate concentrations as described above, where vi and v0 are the fraction of enzymatic activity in the presence and absence of inhibitor, respectively, in terms of initial velocities. The determination of Ki values was carried out on equilibrium conditions ([E0]/Ki ≤ 10), using a previously determined preincubation time of 15 min, required to establish enzyme-inhibitor equilibrium. Working temperature was 37 °C. The best estimates of Ki values were obtained by fitting the experimental data to the equation for tight-binding inhibitors by non-linear regression using the GraphPad Prisma 5 software (GraphPad Software, Inc., San Diego, CA, USA) at p < 0.05. The real Ki values against each of these A/B-type MCPs were calculated according to the equation described by Morrison and Copeland [19, 20].
# bCPA1 [2] = biological target: T1, bCPA1; details: cited from earlier work
# Text: (§1) Table 2 Ki values of various proteinaceous metallocarboxypeptidases (MCPs) inhibitors. | column: Ki (nM) / rPCI (a); Ki (nM) / rTCI (b); Ki (nM) / rLCI (c); Ki (nM) / rACI (d); Ki (nM) / rhuman latexin (e)
# hCPA1 = biological target: T2, hCPA1; details: cited from earlier work
# Text: as §1
# hCPA2 = biological target: T3, hCPA2; details: cited from earlier work
# Text: as §1
# hCPA4 = biological target: T4, hCPA4; details: cited from earlier work
# Text: as §1
# pCPB = biological target: T5, pCPB; details: ref Arolas et al., 2004 [21]; cited from earlier work
# Text: Table 2 Ki values of various proteinaceous metallocarboxypeptidases (MCPs) inhibitors. | column: Ki (nM) / rPCI (a); Ki (nM) / rTCI (b); Ki (nM) / rLCI (c)
# hCPB = biological target: T6, hCPB; details: cited from earlier work
# Text: Table 2 Ki values of various proteinaceous metallocarboxypeptidases (MCPs) inhibitors. | column: Ki (nM) / rPCI (a); Ki (nM) / rTCI (b); Ki (nM) / rLCI (c); Ki (nM) / rhuman latexin (e)
# hTAFI = biological target: T7, hTAFI; details: cited from earlier work
# Text: Table 2 Ki values of various proteinaceous metallocarboxypeptidases (MCPs) inhibitors. | column: Ki (nM) / rPCI (a); Ki (nM) / rTCI (b); Ki (nM) / rACI (d); Ki (nM) / rhuman latexin (e)
molecule,measurement,setting,value
"Alexa488-labelled NvCI: recombinant NvCI fluorescently labelled with an Alexa Fluor 488 Protein Labeling Kit (FHVPDDRPCINPGRCPLVPDATCTFVCKAADNDFGYECQHVWTFEGQRVGCYA; ends and bridges not checked; also: Alexa Fluor 488 label; UniProt P86912 1-53, looked up)",cellular uptake / internalization,HepG2 cells,internalized NvCI was distributed through the cytoplasm
NvCIb: natural isoform of NvCI with N→K substitution at the 11th residue (FHVPDDRPCIKPGRCPLVPDATCTFVCKAADNDFGYECQHVWTFEGQRVGCYA; three intrachain disulphides),Ki,bCPA1 [1],0.038 ± 0.002 nM
"NvCIc: minor natural isoform, lacks the N-terminal Phe as compared to NvCIa (HVPDDRPCINPGRCPLVPDATCTFVCKAADNDFGYECQHVWTFEGQRVGCYA; three intrachain disulphides)",Ki,bCPA1 [1],0.049 ± 0.002 nM
"NvCId: minor natural isoform, lacks the N-terminal Phe as compared to NvCIb (HVPDDRPCIKPGRCPLVPDATCTFVCKAADNDFGYECQHVWTFEGQRVGCYA; three intrachain disulphides)",Ki,bCPA1 [1],0.022 ± 0.001 nM
B1,Ki,"bCPA1 [2]; ref Arolas et al., 2004 [21]",1.1 ± 0.2 nM
same,Ki,"hCPA1; ref Arolas et al., 2004 [21]",1.3 ± 0.4 nM
same,Ki,"hCPA2; ref Arolas et al., 2004 [21]",4.5 ± 0.6 nM
same,Ki,"hCPA4; ref Tanco et al., 2010 [22]",7.3 ± 0.4 nM
same,Ki,pCPB,2.4 ± 0.5 nM
same,Ki,"hCPB; ref Arolas et al., 2004 [21]",1.2 ± 0.3 nM
B2,Ki,"bCPA1 [2]; ref Sanglas et al., 2009 [10]",2.4 ± 0.3 nM
same,Ki,"hCPA1; ref Sanglas et al., 2009 [10]",1.6 ± 0.2 nM
same,Ki,"hCPA2; ref Sanglas et al., 2009 [10]",2.5 ± 0.2 nM
same,Ki,"hCPA4; ref Sanglas et al., 2009 [10]",23.9 ± 3.1 nM
same,Ki,"hTAFI; ref Sanglas et al., 2009 [10]",42 ± 1.7 nM
B3,Ki,"bCPA1 [2]; ref Pallarès et al., 2005 [15]",1.2 ± 0.2 nM
same,Ki,"hCPA1; ref Pallarès et al., 2005 [15]",1.6 ± 0.2 nM
same,Ki,"hCPA2; ref Pallarès et al., 2005 [15]",3.5 ± 0.3 nM
same,Ki,"hCPA4; ref Pallarès et al., 2005 [15]",3 ± 0.3 nM
same,Ki,"hCPB; ref Pallarès et al., 2005 [15]",1.1 ± 0.1 nM
same,Ki,"hTAFI; ref Pallarès et al., 2005 [15]",1.8 ± 0.3 nM

# — paper PMC6780499, “Characterization, Recombinant Production and Structure-Function Analysis of NvCI, A Picomolar Metallocarboxypeptidase Inhibitor from the Marine Snail Nerita versicolor” (Marine Drugs, 2019)
